These results are taken from US7078174B1, “Screening methods using SOCS box-containing peptides” (The Walter & Eliza Hall Institute of Medical Research, priority 1998, dated 2006).

Entries after “also recorded” stand apart in the source; their conditions may differ. Square brackets hold non-standard residues; d marks the D form. Ends that are not written are not given here. Peptide text beside a SMILES is read from it. * marks the point of attachment. Biotin = O=C1N[C@H]2[C@H](CS[C@H]2CCCCC(=O)*)N1; Nle = CCCC[C@H](N)C(=O)O

The target of test [1] is T1, elongin C (Mus musculus, UniProt P83940).
T1 construct: endogenous in cells; host or cells: M1 murine monocytic leukemic cells (lysate)
In words: Competition of SOCS-1 SOCS box/elongin C interaction in M1 cellular extracts. To be noted: 80 mM competing non-biotinylated SOCS box peptide, SDS-PAGE, silver staining. It is filed as binding, murine. Here is the method: (§1) Following biotinylation, the peptide was reduced by treatment with 5 mM DTT. Typically, peptide was coupled to streptavidin-agarose resin (Pierce immunopure; 1–2 mg streptavidin/mL resin) by incubating equal volumes of resin and 1 mg/mL peptide for 1 h, followed by extensive washing.
(§2) M1 cells were lysed as previously described, except at a concentration of 10^9 cells/mL of lysis buffer. Streptavidin-agarose binding proteins were precleared from lysate by treating overnight at 4° C. with streptavidin-agarose resin (100 μL of resin/mL lysate). SOCS box peptides (SOCS-1, ASB-2 and WSB-2) were solubilized in water at 10 mg/mL, and aliquots of these, or water alone, were added to 350 μL fractions of cleared lysate, followed by incubation for 3 h at 4° C. These lysates were then added to 30 μL of SOCS-1 SOCS box peptide resin and incubated a further 2 h at 4° C. The resin was extensively washed with lysis buffer and bound proteins were eluted with 20 μL of 4×SDS sample buffer. Proteins were separated by SDS-PAGE on a 4–15% reducing gel.

For test [2], the system named is SOCS-3 protein. Nature of the test: IL-6-induced expression of endogenous SOCS-3 protein in J774 cells. It counts as cell-based. To be noted: LLnL 50 μM, 100 ng/ml murine IL-6, 30–180 min. As for the experimental part: Mouse macrophage-like J774 cells were grown continuously in DME containing 10% bovine calf serum. The cells were washed once in PBS, twice with DME and starved for 1 h in DME containing 0.1% w/v low-endotoxin bovine serum albumin (BSA; Sigma). The proteasome inhibitor LLnL dissolved in dimethyl sulfoxide (DMSO) or DMSO was added to the cells for 15 min and the cells then stimulated with 100 ng/ml of murine IL-6 for the indicated times.
Proteins were immunoprecipitated with anti-myc (9E10; WEHI) and protein A-Sepharose or anti-FLAG antibody conjugated to Sepharose (KM5-IC7; WEHI) and separated by sodium dodecyl sulphate-polyacrylamide gel electrophoresis (SDS-PAGE) (Biorad, Hercules, Calif.) under reducing conditions. Proteins were then electrophoretically transferred to PVDF-Plus membranes (Micron Separations Inc. WestBorough, Mass.) and Western blotted as described (8).

Test [3] concerns the target T2, elongins B and C (Mus musculus, UniProt P62869+P83940).
T2 construct: endogenous in cells; host or cells: M1 murine monocytic leukemic cells
In words: Affinity purification of SOCS box-binding proteins from M1 cell lysates on GST-SOCS box Sepharose. To be noted: mass spectrometry and Western blot, not seen with GST control. On the set-up: species or system murine. As for the experimental part:
DNA fragments encoding the SOCS boxes from mouse SOCS-1 (residues 172–212) and SOCS-3 (residues 186–225) with an N-terminal linker sequence (EGKSSGSGSESKVD) (SEQ ID NO:3) were generated by PCR and cloned into the bacterial expression vector pGEX-2T (9). The GST fusion proteins were purified by affinity chromatography on glutathione Sepharose 4B (Amersham Pharmacia Biotec) and affinity resins were prepared by covalently coupling 1 mg of purified proteins to 1 ml of NHS-activated Sepharose resin (Amersham Pharmacia Biotec). Before use, the affinity resins were washed with elution buffer (0.5% w/v SDS, 50 mM DTT, 50 mM Tris-HCl, pH 8.0 and 150 mM NaCl) and equilibrated in lysis buffer (0.5% w/v Nonidet P-40, 10 mM Tris-HCl, pH 7.5 and 100 mM NaCl).
M1 cells (2×10^10) were lysed on ice for 30 min in 100 ml of lysis buffer supplemented with protease inhibitors (Complete Cocktail tablets; Boehringer Mannheim, Mannheim, Germany), 1 mM PMSF, 1 mM Na3VO4 and 1 mM NaF. The total cell lysate was centrifuged at 15,000 rpm (SS34 rotor) for 15 min at 4° C. and the clarified supernatant pre-incubated with 1 ml of GST-Sepharose resin for 2 h at 4° C. Half the GST-Sepharose-depleted M1 cell lysate was incubated with 1 ml of GST-SOCS-1 SOCS box- and the other half with GST-SOCS-3 SOCS box-Sepharose resin for 2 h at 4° C. […]
In general terms: Immunoblotting shows a protein as a band on a membrane.

For test [4], the target named is T2, elongins B and C. Nature of the test: Affinity purification from M1 cellular extracts with biotinylated SOCS-1 SOCS box peptide on streptavidin-agarose. It counts as binding, murine. Conditions: streptavidin-agarose bound peptide; mass spectrometry. Here is the method: as §1, §2

T1 sequence (P83940 whole entry): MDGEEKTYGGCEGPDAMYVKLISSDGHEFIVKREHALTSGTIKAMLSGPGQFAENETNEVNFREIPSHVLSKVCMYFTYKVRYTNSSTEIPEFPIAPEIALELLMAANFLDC
T1 sequence (P62869 whole entry partner): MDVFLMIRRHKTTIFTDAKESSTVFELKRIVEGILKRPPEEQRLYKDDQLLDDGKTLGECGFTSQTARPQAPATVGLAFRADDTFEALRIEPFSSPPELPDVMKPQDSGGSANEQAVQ
T2 sequence (P83940 whole entry): as the sequence (P83940 whole entry) above
T2 sequence (P62869 whole entry): as the sequence (P62869 whole entry partner) above

Turning to “WSB-2 SOCS box peptide: Synthetic peptide fragment of murine WSB-2 corresponding to the SOCS box and five upstream N-terminal residues (TAPRVLSSLKHLCRKALRSFLTTYQVLALPIPKKMKEFLTYRTF)”, the “competition of elongin C binding to immobilized SOCS-1 SOCS box peptide” value in test [1] is given as “competed for this interaction; also recorded: prevented binding of elongin C to immobilized SOCS-1 SOCS box”.
For the compound `CCCC[C@@H](C=O)NC(=O)[C@H](CC(C)C)NC(=O)[C@H](CC(C)C)NC(C)=O` [LLnL, N-acetyl-L-leucinyl-L-leucinyl-norleucinal] (Ac-Leu-Leu-[Nle]-aldehyde), in test [2], the “SOCS-3 protein levels after IL-6 stimulation” value is reported as “continual increase in SOCS-3 protein levels”.
For “GST-SOCS-1 SOCS box: GST fusion protein with SOCS box of mouse SOCS-1 (residues 172–212) and N-terminal linker, coupled to Sepharose (EGKSSGSGSESKVDVRPLQELCRQRIVAAVGRENLARIPLNPVLRDYLSSFPFQI; not fully specified (N-terminus); also: coupled to Sepharose)”, the “elongins B and C in eluates from affinity resin” value in test [3] was “both elongins were present in eluates”.
Regarding “biotinylated SOCS-1 SOCS box peptide: SOCS-1 SOCS box peptide biotinylated at the amino terminus with sulfosuccinimidobiotin, coupled to streptavidin-agarose (Biotin-LRQRRVRPLQELCRQRIVAAVGRENLARIPLNPVLRDYLSSFPFQI; also: coupled to streptavidin-agarose)”, in test [4], the “interacting proteins identified in M1 cellular extracts” value is “identification by mass spectrometry of elongins B and C as interacting proteins”.
Regarding “SOCS-1 SOCS box peptide: Synthetic peptide fragment of murine SOCS-1 corresponding to the SOCS box and five upstream N-terminal residues (LRQRRVRPLQELCRQRIVAAVGRENLARIPLNPVLRDYLSSFPFQI)”, the “competition of elongin C binding to immobilized SOCS-1 SOCS box peptide” value in test [1] is “competed for this interaction; also recorded: prevented binding of elongin C to immobilized SOCS-1 SOCS box”.
For the compound “GST-SOCS-3 SOCS box: GST fusion protein with SOCS box of mouse SOCS-3 (residues 186–225) and N-terminal linker, coupled to Sepharose (EGKSSGSGSESKVDVATLQHLCRKTVNGHLDSYEKVTQLPGPIREFLDQYDAPL; not fully specified (N-terminus); also: coupled to Sepharose)”, the “elongins B and C in eluates from affinity resin” value in test [3] is given as “both elongins were present in eluates”.
